Among the data in patent publication US20250011363A1, “OPTIMIZED SHORTENED PEPTIDE THAT BINDS TO ACETYLCHOLINE RECEPTOR, AND USE THEREOF” (SKINMED CO., LTD., priority 2021, published 2025) are Binding affinity (RU) values, retold here.

This experiment has as its target acetylcholine receptor. Kind of experiment: SPR, receptor immobilized, peptide 10 uM. On the technique in general: In SPR one partner is held on a chip, and binding of the other changes the refractive index at the surface.

B1: 6mer-1-145 (peptide)
peptide: RKVFQR
As to B1, the Binding affinity (RU) turned out to be 141 RU.

B2: 6mer-1-138 (peptide)
peptide: RKVVTR
With B2, the Binding affinity (RU) came to 124 RU.

B3: 6mer-1-159 (peptide)
peptide: KRLRRK
B3 yielded a Binding affinity (RU) of 139 RU.

B4: 5mer-1096 (peptide)
peptide: RPTDK
As for B4, the Binding affinity (RU) was 15 RU.

B5: 5mer-1079 (peptide)
peptide: KYTGR
Molecule B5 displayed a Binding affinity (RU) of 31 RU.

B6: 5mer-1088 (peptide)
peptide: KAKKK
In the case of B6, the Binding affinity (RU) came to 16 RU.

B7: 5mer-789 (peptide)
peptide: KFWIR
Molecule B7 displayed a Binding affinity (RU) of 12 RU.

B8: 6mer-1-149 (peptide)
peptide: RRWVCK
For the molecule B8, the Binding affinity (RU) was determined as 131 RU.

B9: 6mer-1-152 (peptide)
peptide: KRVIRR
For B9, the Binding affinity (RU) was determined as 154 RU.

B10: 5mer-787 (peptide)
peptide: KDNIR
In turn, B10 registered a Binding affinity (RU) of 17 RU.

B11: 5mer-790 (peptide)
peptide: REAGK
Turning to B11, the Binding affinity (RU) was 33 RU.

B12: 5mer-1097 (peptide)
peptide: KPDIR
Turning to B12, the Binding affinity (RU) was found to be 28 RU.

B13: 5mer-792 (peptide)
peptide: RMEKK
B13: the Binding affinity (RU) worked out at 31 RU.

B14: 5mer-794 (peptide)
peptide: KEAPK
For B14, the Binding affinity (RU) was 20 RU.

B15: 6mer-1-156 (peptide)
peptide: RRSVTK
As to B15, the Binding affinity (RU) was found to be 154 RU.

B16: 6mer-1-158 (peptide)
peptide: RRLIYR
With B16, the Binding affinity (RU) came out at 131 RU.

B17: 5mer-784 (peptide)
peptide: RACEK
Turning to B17, the Binding affinity (RU) was 21 RU.

B18: 5mer-780 (peptide)
peptide: RDSHK
As for B18, the Binding affinity (RU) worked out at 27 RU.

B19: 5mer-1080 (peptide)
peptide: RYTHK
Take B19: the Binding affinity (RU) came out at 25 RU.

B20: 5mer-788 (peptide)
peptide: KYHGK
Consider B20, for which the Binding affinity (RU) was 16 RU.

B21: 5mer-1098 (peptide)
peptide: RFHGR
B21 returned a Binding affinity (RU) of 31 RU.

B22: 5mer-1084 (peptide)
peptide: RTHDR
B22 came in with a Binding affinity (RU) of 21 RU.

B23: 5mer-795 (peptide)
peptide: RTKKR
The molecule B23 registered a Binding affinity (RU) of 20 RU.

B24: 6mer-1-137 (peptide)
peptide: RRLFRR
In turn, B24 displayed a Binding affinity (RU) of 121 RU.

B25: 5mer-785 (peptide)
peptide: KPTIR
For B25, the Binding affinity (RU) came to 31 RU.

B26: 6mer-1-142 (peptide)
peptide: KKVYYK
As to B26, the Binding affinity (RU) is 123 RU.

B27: 6mer-1-155 (peptide)
peptide: RRVRSR
B27 registered a Binding affinity (RU) of 127 RU.

B28: 5mer-781 (peptide)
peptide: RIDPR
B28 registered a Binding affinity (RU) of 28 RU.

B29: 5mer-1081 (peptide)
peptide: RPNVR
Molecule B29 yielded a Binding affinity (RU) of 13 RU.

B30: 6mer-1-151 (peptide)
peptide: KRGVRR
Molecule B30 yielded a Binding affinity (RU) of 145 RU.

B31: 6mer-1-157 (peptide)
peptide: KKSLLR
B31 registered a Binding affinity (RU) of 123 RU.

B32: 5mer-778 (peptide)
peptide: KKDHK
B32: the Binding affinity (RU) came to 24 RU.

B33: 5mer-1082 (peptide)
peptide: RACFR
With B33, the Binding affinity (RU) was 11 RU.

B34: 6mer-1-139 (peptide)
peptide: KRRFLR
B34 came in with a Binding affinity (RU) of 122 RU.

B35: 5mer-1077 (peptide)
peptide: KADMK
The molecule B35 yielded a Binding affinity (RU) of 12 RU.

B36: 6mer-1-160 (peptide)
peptide: RRVIQR
For B36, the Binding affinity (RU) came out at 149 RU.

B37: 5mer-1086 (peptide)
peptide: RIWDR
As for B37, the Binding affinity (RU) worked out at 19 RU.

B38: 5mer-1085 (peptide)
peptide: RTTER
B38: the Binding affinity (RU) was determined as 14 RU.

B39: 6mer-1-154 (peptide)
peptide: KKLYSR
B39 showed a Binding affinity (RU) of 153 RU.

B40: 6mer-1-143 (peptide)
peptide: KRGVLR
The molecule B40 came in with a Binding affinity (RU) of 145 RU.

B41: 5mer-782 (peptide)
peptide: KANAR
For B41, the Binding affinity (RU) amounted to 32 RU.

B42: 6mer-1-153 (peptide)
peptide: KKWQQR
B42: the Binding affinity (RU) worked out at 146 RU.

B43: 5mer-1078 (peptide)
peptide: KEAWK
The molecule B43 gave a Binding affinity (RU) of 19 RU.

B44: 6mer-1-136 (peptide)
peptide: RRWLYK
In turn, B44 displayed a Binding affinity (RU) of 148 RU.

B45: 5mer-779 (peptide)
peptide: KYPPR
As to B45, the Binding affinity (RU) was determined as 21 RU.

B46: 5mer-783 (peptide)
peptide: KCKVR
For B46, the Binding affinity (RU) came out at 29 RU.

B47: 6mer-1-144 (peptide)
peptide: RKRYTR
In turn, B47 returned a Binding affinity (RU) of 148 RU.

B48: 5mer-776 (peptide)
peptide: RCDFR
B48 registered a Binding affinity (RU) of 17 RU.

B49: 5mer-1093 (peptide)
peptide: REEDK
For B49, the Binding affinity (RU) was 32 RU.

B50: 5mer-791 (peptide)
peptide: KTKMR
B50 had a Binding affinity (RU) of 26 RU.

B51: 5mer-793 (peptide)
peptide: KKPHR
B51: the Binding affinity (RU) turned out to be 19 RU.

B52: 5mer-1089 (peptide)
peptide: KTHHR
In turn, B52 had a Binding affinity (RU) of 29 RU.

B53: 5mer-1095 (peptide)
peptide: KAEKR
For the molecule B53, the Binding affinity (RU) is 27 RU.

B54: 5mer-1075 (peptide)
peptide: RKHIK
Molecule B54 showed a Binding affinity (RU) of 26 RU.

B55: 6mer-1-141 (peptide)
peptide: RKLYQK
In turn, B55 displayed a Binding affinity (RU) of 141 RU.

B56: 5mer-796 (peptide)
peptide: KNWVR
In turn, B56 showed a Binding affinity (RU) of 17 RU.

B57: 5mer-777 (peptide)
peptide: RYNWK
B57 showed a Binding affinity (RU) of 28 RU.

B58: 6mer-1-150 (peptide)
peptide: RKRQCR
On to B58, for which the Binding affinity (RU) amounted to 142 RU.

B59: 5mer-1091 (peptide)
peptide: KTEHR
With B59, the Binding affinity (RU) was 29 RU.

B60: 5mer-1092 (peptide)
peptide: KPMVK
Molecule B60 returned a Binding affinity (RU) of 12 RU.

B61: 5mer-1083 (peptide)
peptide: KFSVR
The molecule B61 yielded a Binding affinity (RU) of 31 RU.

B62: 5mer-797 (peptide)
peptide: KETHK
With B62, the Binding affinity (RU) is 15 RU.

B63: 6mer-1-148 (peptide)
peptide: RKLRCR
In turn, B63 came in with a Binding affinity (RU) of 146 RU.

B64: 5mer-1087 (peptide)
peptide: KKKKR
In turn, B64 displayed a Binding affinity (RU) of 11 RU.

B65: 5mer-1094 (peptide)
peptide: RYSMK
In turn, B65 came in with a Binding affinity (RU) of 15 RU.

B66: 5mer-1090 (peptide)
peptide: KISGK
B66 had a Binding affinity (RU) of 31 RU.

B67: 6mer-1-147 (peptide)
peptide: KKQIQR
Regarding B67, the Binding affinity (RU) worked out at 125 RU.

B68: 5mer-1076 (peptide)
peptide: KFEKK
As for B68, the Binding affinity (RU) came to 21 RU.

B69: 5mer-798 (peptide)
peptide: RETMK
As to B69, the Binding affinity (RU) amounted to 13 RU.

B70: 6mer-1-140 (peptide)
peptide: KRQVQR
Consider B70, for which the Binding affinity (RU) stood at 148 RU.

B71: 5mer-786 (peptide)
peptide: RFNKK
In turn, B71 registered a Binding affinity (RU) of 29 RU.

B72: 6mer-1-146 (peptide)
peptide: KRGRRR
For the molecule B72, the Binding affinity (RU) was found to be 139 RU.
